{"source": "patent US20090142784", "key": {"[1]": {"system": "T1, LRRKtide peptide (RLGRDKYKTLRQIRQ)", "T1 sequence": "RLGRDKYKTLRQIRQ"}, "[2]": {"system": "T2, LongLRRKtide (RLGRDKYKTLRQIRQGNTKQR)", "T2 sequence": "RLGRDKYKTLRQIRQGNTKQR"}}}
{"substance": "GST-LRRK2[1326-2527]", "values": [{"measurement": "Km (phosphorylation of LRRKtide, P81 paper 32P assay)", "setting": "[1]", "value": "a similar Km of approximately 200 µM"}, {"measurement": "affinity relative to LRRKtide (from phosphorylation with LRRK2)", "setting": "[2]", "value": "The LRRK2 affinity for the longLRRKtide is ten fold more than that that of LRRKtide"}]}
